System: trimmed trastuzumab (core GlcNAc(Fuc) / core GlcNAc, glycan of formula (1))
Assay: Glycosyltransfer of sugar derivative to trimmed (Endo S deglycosylated) trastuzumab, MS analysis
Type: biochemical
Conditions: for major heavy chain product, F2-GalNAz transfer to core GlcNAc(Fuc)-substituted trastuzumab: UDP-F2-GalNAz 0.4 mM, GalNAcT 1 mg/mL, 10 mM MnCl2, pH 8.0, 16 hours, 30° C.; for cumulative conversions of the major and minor product, F2-GalNAz transfer: UDP-F2-GalNAz (18) 1 mM, enzyme 0.25 mg/mL; for cumulative conversions of the major and minor product, F2-GalNBzN3 transfer: UDP-F2-GalNBzN3 (24) 1 mM, enzyme 0.5 mg/mL
Experimental: Trimming of IgG glycans was performed using Endo S from Streptococcus pyogenes (commercially available from Genovis, Lund, Sweden). The IgG (10 mg/mL) was incubated with Endo S (40 U/mL) in 25 mM Tris pH 8.0 for approximately 16 hours at 37° C. The deglycosylated IgG was concentrated and washed with 10 mM MnCl2 and 25 mM Tris-HCl pH 8.0 using an Amicon Ultra-0.5, Ultracel-10 Membrane (Millipore).
Trastuzumab was subjected to the trimming protocol above. Analysis of the trimmed antibody was performed on a JEOL AccuToF equipped with an Agilent 1100 HPLC. Samples (2 μL) were reduced with DTT (2 μL) during 10 min and subsequently diluted with H2O (40 μL) prior to injection. […] The two peaks of heavy chain belonged to one major product (49496 Da, 90% of total heavy chain), resulting from core GlcNAc(Fuc) substituted trastuzumab, and a minor product (49351 Da, ±10% of total heavy chain), resulting from core GlcNac substituted trastuzumab. This is an example of a glycoprotein comprising a glycan according to formula (1).
A solution of 50 μg (modified) IgG, 1 M Tris-HCl pH 8.0, 1 mM EDTA and 30 mM DTT with a total volume of approximately 70 μL was incubated for 20 minutes at 37° C. to reduce the disulfide bridges allowing to analyze both light and heavy chain. If present, azide-functionalities are reduced to amines under these conditions. Reduced samples were washed trice with milliQ using an Amicon Ultra-0.5, Ultracel-10 Membrane (Millipore) and concentrated to 10 μM (modified) IgG. The reduced IgG was analyzed by electrospray ionization time-of-flight (ESI-TOF) on a JEOL AccuTOF. Deconvoluted spectra were obtained using Magtran software.
Enzymatic introduction of galactose derivative (e.g. azido-containing sugar) onto IgG was effected with a GalNAc-transferase or a mutant thereof. The deglycosylated IgG (prepared as described above, 10 mg/mL) was incubated with a modified UDP-galactose derivative (e.g. an azido-modified sugar-UDP derivative) (0.4 mM) and GalNAcT (1 mg/mL) in 10 mM MnCl2 and 25 mM Tris-HCl pH 8.0 for 16 hours at 30° C. The functionalized IgG (e.g. azido-functionalized IgG) was incubated with protein A agarose (40 μL per mg IgG) for 2 hours at 4° C. The protein A agarose was washed three times with PBS and the IgG was eluted with 100 mM glycine-HCl pH 2.7. The eluted IgG was neutralized with 1 M Tris-HCl pH 8.0 and concentrated and washed with PBS using an Amicon Ultra-0.5, Ultracel-10 Membrane (Millipore) to a concentration of 15-20 mg/mL.
Enzymatic introduction of galactose derivative (e.g. thio-containing sugar 21) onto IgG was effected with a GalNAc-transferase or a mutant thereof. The deglycosylated IgG (prepared as described above, 10 mg/mL) was incubated with a modified UDP-galactose derivative (e.g. an thio-modified sugar-UDP derivative) (2 mM) and GalNAcT (0.2 mg/mL) in 10 mM MnCl2 and 50 mM Tris-HCl pH 6.0 for 16 hours at 30° C. The functionalized IgG (e.g. thio-functionalized trastuzumab) was incubated with protein A agarose (40 μL per mg IgG) for 1 hours at rt. The protein A agarose was washed three times with TBS (pH 6.0) and the IgG was eluted with 100 mM glycine-HCl pH 2.5. The eluted IgG was neutralized with 1 M Tris-HCl pH 7.0 and concentrated and washed with 50 mM Tris-HCl pH 6.0 using an Amicon Ultra-0.5, Ultracel-10 Membrane (Millipore) to a concentration of 15-20 mg/mL.

B1: DmGalNAcT: truncated Drosophila melanogaster β-(1,4)-GalNAcT, amino acids 47-403 of SEQ ID NO: 5 (SEQ ID NO: 9) (protein)
chain: HKYAHIYGNASSDGAGGSEASRLPASPLALSKDRERDQELNGGPNSTIRTVIATANFTSIPQDLTRFLLGTKKFLPPRQKSTSALLANCTDPDPRDGGPITPNTTLESLDVIEAELGPLLRPGGAFEPENCNAQHHVAIVVPFRDRYAHLLLFLRNIHPFLMKQRIAYRIFIVEQTNGKPFNRAAMMNIGYLEALKLYQWDCFIFHDVDLLPLDDRNLYNCPRQPRHMSVAIDTLNFRLPYRSIFGGVSAMTREHFQAVNGFSNSFFGWGGEDDDMSNRLKHANLFISRYPVNIARYKMLKHQKEKANPKRYENLQNGMSKIEQDGINSIKYSIYSIKQFPTFTWYLAELKNSERKS
modifications: DmGalNAcT (47-403)
In the case of B1, the “major heavy chain product, F2-GalNAz transfer to core GlcNAc(Fuc)-substituted trastuzumab” value is reported as “approximately 90 % of total heavy chain”.

B2: AsGalNAcT: truncated Ascaris suum β-(1,4)-GalNAcT, amino acids 30-383 of SEQ ID NO: 3 (SEQ ID NO: 7) (protein)
chain: DYSFWSPAFIISAPKTLTTLQPFSQSTSTNDLAVSALESVEFSMLDNSSILHASDNWTNDELVMRAQNENLQLCPMTPPALVGPIKVWMDAPSFAELERLYPFLEPGGHGMPTACRARHRVAIVVPYRDRESHLRTFLHNLHSLLTKQQLDYAIFVVEQTANETFNRAKLMNVGYAEAIRLYDWRCFIFHDVDLLPEDDRNLYSCPDEPRHMSVAVDKFNYKLPYGSIFGGISALTREQFEGINGFSNDYWGWGGEDDDLSTRVTLAGYKISRYPAEIARYKMIKHNSEKKNPVNRCRYKLMSATKSRWRNDGLSSLSYDLISLGRLPLYTHIKVDLLEKQSRRYLRTHGFPTC
modifications: AsGalNAcT (30-383)
For B2, the “major heavy chain product, F2-GalNAz transfer to core GlcNAc(Fuc)-substituted trastuzumab” value was “approximately 90 % of total heavy chain”, the “major product, GalNButN3 transfer to core GlcNAc(Fuc) substituted trastuzumab” value (UDP-GalNButN3 0.7 mM, AsGalNAcT(wt) 0.2 mg/mL, overnight) was 50 % of total heavy chain and the “major product, GalNProSH transfer to core GlcNAc(Fuc) substituted trastuzumab” value (UDP-GalNProSH 2 mM, AsGalNAcT 0.2 mg/mL, overnight) was 95 % of total heavy chain. For the same molecule, the “major product, GalNPropN3 transfer to core GlcNAc(Fuc) substituted trastuzumab” value (UDP-GalNPropN3 0.7 mM, AsGalNAcT 0.2 mg/mL, overnight) was 70 % of total heavy chain.

B3: TnGalNAcT(wt): wild-type TnGalNAcT compared with the mutants; probably His6-TnGalNAcT(33-421), SEQ ID NO: 49, from E. coli (protein)
chain: MGSSHHHHHHSSGLVPRGSHMSPLRTYLYTPLYNATQPTLRNVERLAANWPKKIPSNYIEDSEEYSIKNISLSNHTTRASVVHPPSSITETASKLDKNMTIQDGAFAMISPTPLLITKLMDSIKSYVTTEDGVKKAEAVVTLPLCDSMPPDLGPITLNKTELELEWVEKKFPEVEWGGRYSPPNCTARHRVAIIVPYRDRQQHLAIFLNHMHPFLMKQQIEYGIFIVEQEGNKDFNRAKLMNVGFVESQKLVAEGWQCFVFHDIDLLPLDTRNLYSCPRQPRHMSASIDKLHFKLPYEDIFGGVSAMTLEQFTRVNGFSNKYWGWGGEDDDMSYRLKKINYHIARYKMSIARYAMLDHKKSTPNPKRYQLLSQTSKTFQKDGLSTLEYELVQVVQYHLYTHILVNIDERS
modifications: His6-TnGalNAcT(33-421)
With B3 the “cumulative conversions of the major and minor product, F2-GalNAz transfer” value (“cumulative conversions … F2-GalNAz transfer” for short) (overnight) was 95% and the “cumulative conversions of the major and minor product, F2-GalNBzN3 transfer” value (overnight) was 14%.

B4: TnGalNAcT(W336V): T. ni GalNAcT mutant, tryptophan 336 to valine, SEQ ID NO: 52 (protein)
chain: MGSSHHHHHHSSGLVPRGSHMSPLRTYLYTPLYNATQPTLRNVERLAANWPKKIPSNYIEDSEEYSIKNISLSNHTTRASVVHPPSSITETASKLDKNMTIQDGAFAMISPTPLLITKLMDSIKSYVTTEDGVKKAEAVVTLPLCDSMPPDLGPITLNKTELELEWVEKKFPEVEWGGRYSPPNCTARHRVAIIVPYRDRQQHLAIFLNHMHPFLMKQQIEYGIFIVEQEGNKDFNRAKLMNVGFVESQKLVAEGWQCFVFHDIDLLPLDTRNLYSCPRQPRHMSASIDKLHFKLPYEDIFGGVSAMTLEQFTRVNGFSNKYWGVGGEDDDMSYRLKKINYHIARYKMSIARYAMLDHKKSTPNPKRYQLLSQTSKTFQKDGLSTLEYELVQVVQYHLYTHILVNIDERS
modifications: His6-TnGalNAcT(33-421; W336V)
B4 was tested, and the “cumulative conversions … F2-GalNAz transfer” value (overnight) was 27%.

B5: TnGalNAcT(E339A): T. ni GalNAcT mutant, glutamic acid 339 to alanine, SEQ ID NO: 53 (protein)
chain: MGSSHHHHHHSSGLVPRGSHMSPLRTYLYTPLYNATQPTLRNVERLAANWPKKIPSNYIEDSEEYSIKNISLSNHTTRASVVHPPSSITETASKLDKNMTIQDGAFAMISPTPLLITKLMDSIKSYVTTEDGVKKAEAVVTLPLCDSMPPDLGPITLNKTELELEWVEKKFPEVEWGGRYSPPNCTARHRVAIIVPYRDRQQHLAIFLNHMHPFLMKQQIEYGIFIVEQEGNKDFNRAKLMNVGFVESQKLVAEGWQCFVFHDIDLLPLDTRNLYSCPRQPRHMSASIDKLHFKLPYEDIFGGVSAMTLEQFTRVNGFSNKYWGWGGADDDMSYRLKKINYHIARYKMSIARYAMLDHKKSTPNPKRYQLLSQTSKTFQKDGLSTLEYELVQVVQYHLYTHILVNIDERS
modifications: His6-TnGalNAcT(33-421; E339A)
With B5 the “cumulative conversions … F2-GalNAz transfer” value (overnight) was 5%.

B6: TnGalNAcT(W336F): T. ni GalNAcT mutant, tryptophan 336 to phenylalanine, SEQ ID NO: 50 (protein)
chain: MGSSHHHHHHSSGLVPRGSHMSPLRTYLYTPLYNATQPTLRNVERLAANWPKKIPSNYIEDSEEYSIKNISLSNHTTRASVVHPPSSITETASKLDKNMTIQDGAFAMISPTPLLITKLMDSIKSYVTTEDGVKKAEAVVTLPLCDSMPPDLGPITLNKTELELEWVEKKFPEVEWGGRYSPPNCTARHRVAIIVPYRDRQQHLAIFLNHMHPFLMKQQIEYGIFIVEQEGNKDFNRAKLMNVGFVESQKLVAEGWQCFVFHDIDLLPLDTRNLYSCPRQPRHMSASIDKLHFKLPYEDIFGGVSAMTLEQFTRVNGFSNKYWGFGGEDDDMSYRLKKINYHIARYKMSIARYAMLDHKKSTPNPKRYQLLSQTSKTFQKDGLSTLEYELVQVVQYHLYTHILVNIDERS
modifications: His6-TnGalNAcT(33-421; W336F)
In the case of B6, the “cumulative conversions … F2-GalNAz transfer” value (overnight) is reported as 24%.

B7: TnGalNAcT(L302A): T. ni GalNAcT mutant, leucine 302 to alanine, SEQ ID NO: 43 (protein)
chain: MGSSHHHHHHSSGLVPRGSHMSPLRTYLYTPLYNATQPTLRNVERLAANWPKKIPSNYIEDSEEYSIKNISLSNHTTRASVVHPPSSITETASKLDKNMTIQDGAFAMISPTPLLITKLMDSIKSYVTTEDGVKKAEAVVTLPLCDSMPPDLGPITLNKTELELEWVEKKFPEVEWGGRYSPPNCTARHRVAIIVPYRDRQQHLAIFLNHMHPFLMKQQIEYGIFIVEQEGNKDFNRAKLMNVGFVESQKLVAEGWQCFVFHDIDLLPLDTRNLYSCPRQPRHMSASIDKAHFKLPYEDIFGGVSAMTLEQFTRVNGFSNKYWGWGGEDDDMSYRLKKINYHIARYKMSIARYAMLDHKKSTPNPKRYQLLSQTSKTFQKDGLSTLEYELVQVVQYHLYTHILVNIDERS
modifications: His6-TnGalNAcT(33-421; L302A)
In the case of B7, the “cumulative conversions … F2-GalNAz transfer” value (overnight) is reported as 95% and the “cumulative conversions of the major and minor product, F2-GalNBzN3 transfer” value (overnight) is reported as 37%.

From patent publication US11046988B2, “Process for the modification of a glycoprotein using a β-(1,4)-N-acetylgalactosaminyl transferase or a mutant thereof” (Synaffix B.V., priority 2014, dated 2021)
